Assay in all cases: single-particle TIRF colocalisation with photobleaching step counting
Series [1] deals with mTFP-Q-K-Q-Q tetramer of concatenated Kir2.1 subunits.
Series [2] concerns the target mTFP-K-Q, dimer of a wild type Kir2.1 subunit linked to a Kir2.1-K49Q subunit.
For series [3], the target named is mTFP-Q-K-K-Q tetramer of concatenated Kir2.1 subunits.
The target of series [4] is mTFP-K-Q-K-Q tetramer of concatenated Kir2.1 subunits.
The target of series [5] is tetrameric Kir2.1 construct with three SUMO1 binding sites.
For series [6], the target named is mTFP-K-K-K-K, linked tetramer of wild type Kir2.1 subunits.
Series [7] deals with mTFP-K-K, dimer of linked wild type Kir2.1 subunits.
Series [8] concerns the molecule itself.

Consider “mCherry-SUMO1 (from UniProt P63165-1 1-97) (natural protein)”, for which the stoichiometry N (SUMO1 monomers per channel) was 1 in series [1]; 2 in series [2]; 1 in series [3]; 2 in series [4]; 2 in series [5]; 2 in series [6]. This molecule also yielded a stoichiometry N (SUMO1 monomers per channel) in series [7] of 2.

In general, stoichiometry N refers to the number of molecules, sites or subunits per partner or assembly. With “mTFP-K-K, dimer of linked wild type Kir2.1 subunits”, the stoichiometry N in series [7] was 2.

As for “mTFP-K-Q, dimer of a wild type Kir2.1 subunit linked to a Kir2.1-K49Q subunit”, the stoichiometry N in series [2] amounted to 2.

B1: mTFP1-tagged Kir2.1 (natural protein)
chain: MGSVRTNRYSIVSSEEDGMKLATMAVANGFGNGKSKVHTRQQCRSRFVKKDGHCNVQFINVGEKGQRYLADIFTTCVDIRWRWMLVIFCLAFVLSWLFFGCVFWLIALLHGDLDASKESKACVSEVNSFTAAFLFSIETQTTIGYGFRCVTDECPIAVFMVVFQSIVGCIIDAFIIGAVMAKMAKPKKRNETLVFSHNAVIAMRDGKLCLMWRVGNLRKSHLVEAHVRAQLLKSRITSEGEYIPLDQIDINVGFDSGIDRIFLVSPITIVHEIDEDSPLYDLSKQDIDNADFEIVVILEGMVEATAMTTQCRSSYLANEILWGHRYEPVLFEEKHCYKVDYSRFHKTYEVPNTPLCSARDLAEKKYILSNANSFCYENEVALTSKEEEDSENGVPESTSTDSPPGIDLHNQASVPLEPRPLRRESEI
In the case of B1, the “stoichiometry N” value in series [8] turned out to be 4.

For the origin of these results see paper doi:10.1101/2025.04.25.650734 (bioRxiv, 2025).
